Biological target: GDP-bound KRAS4b-farnesyl (farnesylated, not carboxy-methylated) (UniProt P01116)
Assay: ITC

Kd: 1500 nM
Substance: calmodulin (CaM), full-length, amino acids 2-148 (from UniProt P0DP23 2-148) (natural protein)
